# According to article doi:10.1101/2020.06.17.157404:
# Legend:
# [1] = biological target: CFP:MtRH10 (Medicago truncatula); test: FRET or BRET
# [2] = biological target: RPL7:CFP (Medicago truncatula); test: FRET or BRET
substance,measurement,setting,value
AeSSP1256:YFP (natural protein),mean CFP lifetime of the donor with the acceptor (2.86 ns +/- 0.02 without),[1],2.53 ns
same,mean CFP lifetime of the donor with the acceptor (2.83 ns +/- 0.03 without),[2],2.46 ns
